± gives the standard deviation of the averaged measurements.
B1: library; a variant is named by its letters at N, in order (parent)
chain: GCUGUCACCGGUGUAUUACCCUAGUGGUCGACCGGUCUGAUGAGUCUNNNNNNAGACGAAACAGC

Assays:
[1] = variants of: B1; experiment: FACS-Seq fitted mean relative fluorescence mCherry/BFP without ligand (log10 relative fluorescence); ligand: hypoxanthine (xanthine aptamer); higher = higher reporter protein expression; conditions: HEK293T, ligand present: no
Procedure, shortened: (§1)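 Fluorescence is reported as a normalized fitted mean of sorted-bin read counts. Lentivirally transduced HEK293T libraries (mCherry ribozyme-switch reporter, EF1α-BFP marker) were enriched, treated with or without ligand for 48 h, and sorted into 6 mCherry/BFP bins for MiSeq sequencing of PCR-amplified genomic DNA. The normal fit was on log10(mCherry/BFP), scaled to five spiked-in control ribozymes.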

[2] = variants of: B1; experiment: normalized RNA/DNA level with ligand (relative to sTRSVctl = 100) (log10 (% of sTRSVctl)); ligand: hypoxanthine (xanthine aptamer); higher = less ribozyme self-cleavage, higher mRNA level; conditions: ligand concentration (+) RNA-Seq: 5 mM, HEK293T, reporter: mCherry (pCS4076), ligand present: yes
Procedure, shortened: (§2)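 Library plasmids encoding reporter-linked ribozyme switches (mCherry, or eGFP for some folinic acid experiments) were transfected into HEK293T at 4 µg per 6-well well. Ligand, when used, was added 1 h before transfection. Total RNA was extracted with EDTA 72 h later, then reverse-transcribed, amplified, barcoded and sequenced. RNA level was RNA reads over DNA reads, divided by a spiked-in non-cleaving control (or the top 25 sequences), ×100, log10; only sequences with ≥100 DNA reads were kept.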

[3] = variants of: B1; experiment: normalized RNA/DNA level without ligand (relative to sTRSVctl = 100) (log10 (% of sTRSVctl)); ligand: hypoxanthine (xanthine aptamer); higher = less ribozyme self-cleavage, higher mRNA level; conditions: HEK293T, reporter: mCherry (pCS4076), ligand present: no
Procedure, shortened: as §2

[4] = variants of: B1; experiment: FACS-Seq fitted mean relative fluorescence mCherry/BFP with ligand (log10 relative fluorescence); ligand: hypoxanthine (xanthine aptamer); ligand concentration (+) FACS-Seq: 5 mM; higher = higher reporter protein expression; conditions: HEK293T, ligand present: yes
Procedure, shortened: as §1

AGCUUG
FACS-Seq fitted mean (log10) [1]: 0.486 ± 0.018 | normalized RNA/DNA level with ligand (log10) [2]: 1.94 ± 0.036 | normalized RNA/DNA level without ligand (log10) [3]: 1.59 ± 0.018 | FACS-Seq fitted mean (log10) [4]: 0.64 ± 0.031

AGCUUC
FACS-Seq fitted mean (log10) [1]: -0.1877 ± 0.00023 | normalized RNA/DNA level with ligand (log10) [2]: 2.019 ± 0.0075 | normalized RNA/DNA level without ligand (log10) [3]: 1.927 ± 0.016 | FACS-Seq fitted mean (log10) [4]: -0.0634 ± 0.021

CGUCAA
FACS-Seq fitted mean (log10) [1]: 0.13 ± 0.025 | normalized RNA/DNA level with ligand (log10) [2]: 1.96 ± 0.023 | normalized RNA/DNA level without ligand (log10) [3]: 1.807 ± 0.016 | FACS-Seq fitted mean (log10) [4]: 0.3 ± 0.077

AGGCUA
FACS-Seq fitted mean (log10) [1]: 0.509 ± 0.0085 | normalized RNA/DNA level with ligand (log10) [2]: 1.93 ± 0.031 | normalized RNA/DNA level without ligand (log10) [3]: 1.811 ± 0.0095 | FACS-Seq fitted mean (log10) [4]: 0.617 ± 0.057

AGGCUG
FACS-Seq fitted mean (log10) [1]: 0.279 ± 0.011 | normalized RNA/DNA level with ligand (log10) [2]: 2 ± 0.04 | normalized RNA/DNA level without ligand (log10) [3]: 1.78 ± 0.045 | FACS-Seq fitted mean (log10) [4]: 0.333 ± 0.014

UGUAAG
FACS-Seq fitted mean (log10) [1]: 0.327 ± 0.084 | normalized RNA/DNA level with ligand (log10) [2]: 1.9 ± 0.033 | normalized RNA/DNA level without ligand (log10) [3]: 1.67 ± 0.063 | FACS-Seq fitted mean (log10) [4]: 0.586 ± 0.075

UGGGUA
FACS-Seq fitted mean (log10) [1]: 0.491 ± 0.13 | normalized RNA/DNA level with ligand (log10) [2]: 1.95 ± 0.031 | normalized RNA/DNA level without ligand (log10) [3]: 1.85 ± 0.061 | FACS-Seq fitted mean (log10) [4]: 0.699 ± 0.12

AGGGCA
FACS-Seq fitted mean (log10) [1]: 0.0731 ± 0.046 | normalized RNA/DNA level with ligand (log10) [2]: 1.97 ± 0.02 | normalized RNA/DNA level without ligand (log10) [3]: 1.815 ± 0.016 | FACS-Seq fitted mean (log10) [4]: 0.174 ± 0.034

AGGGCG
FACS-Seq fitted mean (log10) [1]: 0.511 ± 0.024 | normalized RNA/DNA level with ligand (log10) [2]: 1.91 ± 0.028 | normalized RNA/DNA level without ligand (log10) [3]: 1.57 ± 0.1 | FACS-Seq fitted mean (log10) [4]: 0.709 ± 0.089

UGGUUU
FACS-Seq fitted mean (log10) [1]: 0.325 ± 0.015 | normalized RNA/DNA level with ligand (log10) [2]: 1.95 ± 0.023 | normalized RNA/DNA level without ligand (log10) [3]: 1.885 ± 0.005 | FACS-Seq fitted mean (log10) [4]: 0.434 ± 0.035

UGGUUC
FACS-Seq fitted mean (log10) [1]: -0.0246 ± 0.0066 | normalized RNA/DNA level with ligand (log10) [2]: 1.96 ± 0.063 | normalized RNA/DNA level without ligand (log10) [3]: 1.925 ± 0.018 | FACS-Seq fitted mean (log10) [4]: 0.212 ± 0.028

AGGAUG
FACS-Seq fitted mean (log10) [1]: 0.132 ± 0.024 | normalized RNA/DNA level with ligand (log10) [2]: 1.79 ± 0.042 | normalized RNA/DNA level without ligand (log10) [3]: 1.25 ± 0.045 | FACS-Seq fitted mean (log10) [4]: 0.526 ± 0.06

AGGAUA
FACS-Seq fitted mean (log10) [1]: -0.536 ± 0.015 | normalized RNA/DNA level with ligand (log10) [2]: 1.9 ± 0.027 | normalized RNA/DNA level without ligand (log10) [3]: 1.677 ± 0.0074 | FACS-Seq fitted mean (log10) [4]: -0.0798 ± 0.042

CGGAGU
FACS-Seq fitted mean (log10) [1]: 0.289 ± 0.057 | normalized RNA/DNA level with ligand (log10) [2]: 1.91 ± 0.024 | normalized RNA/DNA level without ligand (log10) [3]: 1.78 ± 0.074 | FACS-Seq fitted mean (log10) [4]: 0.556 ± 0.041

CGGAGG
FACS-Seq fitted mean (log10) [1]: 0.0652 ± 0.064 | normalized RNA/DNA level with ligand (log10) [2]: 1.78 ± 0.12 | normalized RNA/DNA level without ligand (log10) [3]: 1.28 ± 0.021 | FACS-Seq fitted mean (log10) [4]: 0.528 ± 0.0064

GGUAUG
FACS-Seq fitted mean (log10) [1]: -0.113 ± 0.019 | normalized RNA/DNA level with ligand (log10) [2]: 1.73 ± 0.052 | normalized RNA/DNA level without ligand (log10) [3]: 1.32 ± 0.038 | FACS-Seq fitted mean (log10) [4]: 0.434 ± 0.035

UGGCAG
FACS-Seq fitted mean (log10) [1]: 0.155 ± 0.013 | normalized RNA/DNA level with ligand (log10) [2]: 1.91 ± 0.045 | normalized RNA/DNA level without ligand (log10) [3]: 1.69 ± 0.045 | FACS-Seq fitted mean (log10) [4]: 0.563 ± 0.052

UGGCAU
FACS-Seq fitted mean (log10) [1]: 0.353 ± 0.011 | normalized RNA/DNA level with ligand (log10) [2]: 1.95 ± 0.06 | normalized RNA/DNA level without ligand (log10) [3]: 1.755 ± 0.014 | FACS-Seq fitted mean (log10) [4]: 0.465 ± 0.046

CGUAUA
FACS-Seq fitted mean (log10) [1]: 0.422 ± 0.015 | normalized RNA/DNA level with ligand (log10) [2]: 1.91 ± 0.025 | normalized RNA/DNA level without ligand (log10) [3]: 1.641 ± 0.007 | FACS-Seq fitted mean (log10) [4]: 0.566 ± 0.016

GGGUUG
FACS-Seq fitted mean (log10) [1]: 0.034 ± 0.047 | normalized RNA/DNA level with ligand (log10) [2]: 1.92 ± 0.024 | normalized RNA/DNA level without ligand (log10) [3]: 1.64 ± 0.073 | FACS-Seq fitted mean (log10) [4]: 0.486 ± 0.065

GGGUUA
FACS-Seq fitted mean (log10) [1]: 0.574 ± 0.047 | normalized RNA/DNA level with ligand (log10) [2]: 1.99 ± 0.018 | normalized RNA/DNA level without ligand (log10) [3]: 1.845 ± 0.013 | FACS-Seq fitted mean (log10) [4]: 0.558 ± 0.01

AGUAUA
FACS-Seq fitted mean (log10) [1]: 0.449 ± 0.0061 | normalized RNA/DNA level with ligand (log10) [2]: 1.91 ± 0.079 | normalized RNA/DNA level without ligand (log10) [3]: 1.7692 ± 0.0007 | FACS-Seq fitted mean (log10) [4]: 0.472 ± 0.057

AGGUGA
FACS-Seq fitted mean (log10) [1]: 0.38 ± 0.046 | normalized RNA/DNA level with ligand (log10) [2]: 1.86 ± 0.028 | normalized RNA/DNA level without ligand (log10) [3]: 1.46 ± 0.04 | FACS-Seq fitted mean (log10) [4]: 0.623 ± 0.045

GGUCCA
FACS-Seq fitted mean (log10) [1]: 0.354 ± 0.029 | normalized RNA/DNA level with ligand (log10) [2]: 1.96 ± 0.023 | normalized RNA/DNA level without ligand (log10) [3]: 1.94 ± 0.056 | FACS-Seq fitted mean (log10) [4]: 0.465 ± 0.041

GGGACG
FACS-Seq fitted mean (log10) [1]: 0.352 ± 0.016 | normalized RNA/DNA level with ligand (log10) [2]: 1.894 ± 0.014 | normalized RNA/DNA level without ligand (log10) [3]: 1.51 ± 0.021 | FACS-Seq fitted mean (log10) [4]: 0.708 ± 0.031

AGGUAA
FACS-Seq fitted mean (log10) [1]: 0.414 ± 0.059 | normalized RNA/DNA level with ligand (log10) [2]: 1.87 ± 0.022 | normalized RNA/DNA level without ligand (log10) [3]: 1.6 ± 0.06 | FACS-Seq fitted mean (log10) [4]: 0.443 ± 0.069

AGGUAC
FACS-Seq fitted mean (log10) [1]: 0.133 ± 0.061 | normalized RNA/DNA level with ligand (log10) [2]: 1.893 ± 0.017 | normalized RNA/DNA level without ligand (log10) [3]: 1.72 ± 0.02 | FACS-Seq fitted mean (log10) [4]: 0.0782 ± 0.049

AGGUAG
FACS-Seq fitted mean (log10) [1]: 0.161 ± 0.019 | normalized RNA/DNA level with ligand (log10) [2]: 1.73 ± 0.019 | normalized RNA/DNA level without ligand (log10) [3]: 1.3 ± 0.047 | FACS-Seq fitted mean (log10) [4]: 0.537 ± 0.019

AGGUAU
FACS-Seq fitted mean (log10) [1]: 0.648 ± 0.15 | normalized RNA/DNA level with ligand (log10) [2]: 1.871 ± 0.013 | normalized RNA/DNA level without ligand (log10) [3]: 1.69 ± 0.03 | FACS-Seq fitted mean (log10) [4]: 0.665 ± 0.12

AGUAGA
FACS-Seq fitted mean (log10) [1]: 0.394 ± 0.025 | normalized RNA/DNA level with ligand (log10) [2]: 1.83 ± 0.031 | normalized RNA/DNA level without ligand (log10) [3]: 1.42 ± 0.025 | FACS-Seq fitted mean (log10) [4]: 0.725 ± 0.0082

AGUAGU
FACS-Seq fitted mean (log10) [1]: 0.38 ± 0.09 | normalized RNA/DNA level with ligand (log10) [2]: 1.831 ± 0.016 | normalized RNA/DNA level without ligand (log10) [3]: 1.45 ± 0.07 | FACS-Seq fitted mean (log10) [4]: 0.577 ± 0.036

CGGAAU
FACS-Seq fitted mean (log10) [1]: 0.0719 ± 0.0065 | normalized RNA/DNA level with ligand (log10) [2]: 1.81 ± 0.052 | normalized RNA/DNA level without ligand (log10) [3]: 1.42 ± 0.016 | FACS-Seq fitted mean (log10) [4]: 0.548 ± 0.059

CGGAAG
FACS-Seq fitted mean (log10) [1]: 0.266 ± 0.007 | normalized RNA/DNA level with ligand (log10) [2]: 1.905 ± 0.011 | normalized RNA/DNA level without ligand (log10) [3]: 1.734 ± 0.0046 | FACS-Seq fitted mean (log10) [4]: 0.361 ± 0.062

CGGAAA
FACS-Seq fitted mean (log10) [1]: 0.32 ± 0.016 | normalized RNA/DNA level with ligand (log10) [2]: 1.87 ± 0.025 | normalized RNA/DNA level without ligand (log10) [3]: 1.43 ± 0.051 | FACS-Seq fitted mean (log10) [4]: 0.587 ± 0.016

AGGCCG
FACS-Seq fitted mean (log10) [1]: 0.147 ± 0.0087 | normalized RNA/DNA level with ligand (log10) [2]: 1.89 ± 0.018 | normalized RNA/DNA level without ligand (log10) [3]: 1.67 ± 0.054 | FACS-Seq fitted mean (log10) [4]: 0.366 ± 0.045
